# Measured values from IntAct's records for PubMed 16983070.
# B1: Rho guanine nucleotide exchange factor 7 (Homo sapiens), Q14155 (parent)
# chain: MNSAEQTVTWLITLGVLESPKKTISDPEGFLQASLKDGVVLCRLLERLLPGTIEKVYPEPRSESECLSNIREFLRGCGASLRLELLFPPSQPPQHLVTTILLSASTFDANDLYQGQNFNKVLSSLVTLNKVTADIGLGSDSVCARPSSHRIKSFDSLGSQSLHTRTSKLFQGQYRSLDMTDNSNNQLVVRAKFNFQQTNEDELSFSKGDVIHVTRVEEGGWWEGTLNGRTGWFPSNYVREVKASEKPVSPKSGTLKSPPKGFDTTAINKSYYNVVLQNILETENEYSKELQTVLSTYLRPLQTSEKLSSANISYLMGNLEEICSFQQMLVQSLEECTKLPEAQQRVGGCFLNLMPQMKTLYLTYCANHPSAVNVLTEHSEELGEFMETKGASSPGILVLTTGLSKPFMRLDKYPTLLKELERHMEDYHTDRQDIQKSMAAFKNLSAQCQEVRKRKELELQILTEAIRNWEGDDIKTLGNVTYMSQVLIQCAGSEEKNERYLLLFPNVLLMLSASPRMSGFIYQGKLPTTGMTITKLEDSENHRNAFEISGSMIERILVSCNNQQDLQEWVEHLQKQTKVTSVGNPTIKPHSVPSHTLPSHPVTPSSKHADSKPAPLTPAYHTLPHPSHHGTPHTTINWGPLEPPKTPKPWSLSCLRPAPPLRPSAALCYKEDLSKSPKTMKKLLPKRKPERKPSDEEFASRKSTAALEEDAQILKVIEAYCTSAKTRQTLNSTWQGTDLMHNHVLADDDQPSLDSLGRRSSLSRLEPSDLSEDSDYDSIWTAHSYRMGSTSRKSCCSYISHQN
# partner: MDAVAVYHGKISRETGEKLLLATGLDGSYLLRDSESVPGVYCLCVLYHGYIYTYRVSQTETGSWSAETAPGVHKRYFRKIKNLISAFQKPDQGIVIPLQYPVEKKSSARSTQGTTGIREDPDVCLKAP
# B2: SH2 domain-containing protein 1A (Homo sapiens), O60880-1 (parent)
# chain: B1 partner
# Variants of: B1
# Details: with SH2D1A
row,effect of a mutation on the interaction,Variant
1,disrupting interaction strength,W221P;W222G

# Variants of: B2
# Details: with arhg7_human ARHGEF7, Q14155
row,effect of a mutation on the interaction,Variant
1,disrupting interaction strength,MDAVAVYHGKISRETGEKLLLATGLDGSYLLRDSESVPGVYCLCVLYHGYIYTYRVSQTETGSWSAETAPGVHKRYFAKIKNLISAFQKPDQGIVIPLQYPVEKKSSARSTQGTTGIREDPDVCLKAP [R78A]
